{"source": "paper doi:10.1101/2025.01.10.632391", "molecular_target": "angiopoietin-like 6 (ANGPTL6) (UniProt Q8NI99)", "sequence (Q8NI99 21-470)": "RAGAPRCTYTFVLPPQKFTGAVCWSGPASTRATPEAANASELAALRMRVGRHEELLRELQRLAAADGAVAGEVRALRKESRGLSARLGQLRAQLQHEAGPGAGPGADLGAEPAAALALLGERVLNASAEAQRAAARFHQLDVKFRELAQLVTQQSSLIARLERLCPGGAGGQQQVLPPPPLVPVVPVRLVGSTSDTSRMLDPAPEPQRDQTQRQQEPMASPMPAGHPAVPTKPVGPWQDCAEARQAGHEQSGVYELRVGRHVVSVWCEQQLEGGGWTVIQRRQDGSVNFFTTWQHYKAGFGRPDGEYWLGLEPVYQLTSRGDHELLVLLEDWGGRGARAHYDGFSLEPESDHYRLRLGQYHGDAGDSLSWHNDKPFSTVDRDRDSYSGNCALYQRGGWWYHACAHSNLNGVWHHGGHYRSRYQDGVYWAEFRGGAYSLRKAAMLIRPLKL", "assay": "SPR"}
{"substance": "αVβ5 integrin (from UniProt P06756 31-1048; P18084 24-719) (complex)", "values": [{"measurement": "Kd", "value": 0.013, "unit": "µM"}, {"measurement": "koff", "value": 0.0012, "unit": "s⁻¹"}]}
